Assay [1] deals with CD74 on dog lymphocytes and dog lymphoma cells (dog). Description: flow cytometry, dog lymphoma aspirate; none 3.24. A general note: In flow cytometry, cells or beads pass a laser one at a time.
For assay [2], the target named is CD74 on human cells (human) (UniProt P04233). Description: indirect flow cytometry, Namalwa cells, FITC-GAH Fc 2nd Ab; none 2.6.
Assay [3] concerns the target CD74 on dog lymphocytes and dog lymphoma cells (dog). Nature of the assay: flow cytometry, dog lymphoma aspirate; none 4.48.
Assay [4] has as its target CD74 on human cells (human) (UniProt P04233). Description: indirect FACS, Daudi cells, FITC-GAH Fc 2nd Ab; none 3.1.
Assay [5] shares this target. Nature of the assay: indirect flow cytometry, Daudi cells, FITC-GAH Fc 2nd Ab; none 3.2.
For assay [6] the target is unchanged. Description: indirect flow cytometry, RL cells, FITC-GAH Fc 2nd Ab; none 2.4.
Assay [7] has the same target. Nature of the assay: indirect FACS, Ramos cells, FITC-GAH Fc 2nd Ab; none 3.1.
The target is the same in assay [8]. Description: indirect flow cytometry, Raji cells, FITC-GAH Fc 2nd Ab; none 6.9.
In assay [9] the target is CD74 on dog lymphocytes and dog lymphoma cells (dog). Nature of the assay: flow cytometry, canine lymphoma aspirate 150836; none 3.2.
The target of assay [10] is CD74 on human cells (human) (UniProt P04233). Description: indirect FACS, WSU-FSCCL cells, FITC-GAH Fc 2nd Ab; none 2.6.
Assay [11] has the same target. Nature of the assay: indirect flow cytometry, SU-DHL-6 cells, FITC-GAH Fc 2nd Ab; none 4.6.
Assay [12] shares this target. Description: indirect flow cytometry, Ramos cells, FITC-GAH Fc 2nd Ab; none 3.1.
Assay [13] has the same target. Nature of the assay: indirect FACS, Raji cells, FITC-GAH Fc 2nd Ab; none 6.8.
Assay [14] has the same target. Description: indirect flow cytometry, WSU-FSCCL cells, FITC-GAH Fc 2nd Ab; none 2.7.
The target is the same in assay [15]. Nature of the assay: indirect flow cytometry, Namalwa cells, FITC-GAH 2nd Ab; none 2.52.
The target of assay [16] is CD74 on dog lymphocytes and dog lymphoma cells (dog). Description: flow cytometry, canine lymphoma aspirate 150836; none 4.5.
In assay [17] the target is CD74 on human cells (human) (UniProt P04233). Nature of the assay: indirect FACS, Namalwa cells, FITC-GAH Fc 2nd Ab; none 2.5.
Assay [18] shares this target. Description: indirect FACS, SU-DHL-6 cells, FITC-GAH Fc 2nd Ab; none 4.6.

CD74 on human cells (human), sequence (P04233 whole entry): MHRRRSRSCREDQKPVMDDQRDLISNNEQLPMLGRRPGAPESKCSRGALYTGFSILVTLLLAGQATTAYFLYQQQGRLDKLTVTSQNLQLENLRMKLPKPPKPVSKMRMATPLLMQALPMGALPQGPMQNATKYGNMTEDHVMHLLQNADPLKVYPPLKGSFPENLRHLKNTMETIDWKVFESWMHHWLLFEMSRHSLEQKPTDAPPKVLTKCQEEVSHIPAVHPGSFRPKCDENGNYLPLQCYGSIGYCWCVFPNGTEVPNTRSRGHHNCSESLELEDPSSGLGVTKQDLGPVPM

As for “hLL1 (milatuzumab, humanized anti-CD74) (antibody)”, the figures for the mean FL in assay [1] and in [9] were 3.33 and 3.3, respectively. Further, the geometric mean fluorescence came out at 7.8 in assay [2]; 48.8 in assay [4]; 48.8 in assay [5]; 7.9 in [6]; 23.2 in [7]; 95.1 in assay [8]. Also, the geometric mean fluorescence came to 8.66 in assay [10]; 17.3 in assay [11]; 23.3 in [12]; 95.1 in assay [13]; 8.7 in assay [14]; 10.1 in assay [15]. Further, the geometric mean fluorescence stood at 7.81 in assay [17] and 17.3 in assay [18]. Further, the values for the % Positive in assay [3] and in assay [16] were 4.71% and 4.7%, respectively.

Source of the values: patent US20160355591A1.
